{"source": "patent US20260132464A1", "about": "“CIRCULAR RNAS FOR THE DIAGNOSIS AND TREATMENT OF BRAIN DISORDERS” (UNM Rainforest Innovations, priority 2018, published 2026)", "molecules": {"B1": {"name": "circCUL4A: circRNA biomarker for brain disorders, increased in OFC of SCZ patients (nucleic acid, listed as Homo sapiens)", "chain": "GTCACGTCCCGTGTGGCTGTGGAGATCTCTGTGTGACTATGGAGGTTTCATCCATGTGGCTCTGAAGGTCTCTGTGTGACTATGGAGGTCGCGTCCCATGTGGCTGTGGAGGTCGCTGTGTGGCTATGGAG", "modifications": "circular RNA", "notes": "circRNA biomarker for brain disorders, increased in OFC of SCZ patients"}, "B2": {"name": "circHomer1b: circRNA generated from the backsplicing of exons 2 and 3 of HOMER1 pre-mRNA (nucleic acid, listed as Homo sapiens)", "chain": "GGAACAACCTATCTTCAGCACTCGAGCTCATGTCTTCCAAATTGACCCAAACACAAAGAAGAACTGGGTACCCACCAGCAAGCATGCAGTTACTGTGTCTTATTTCTATGACAGCACAAGAAATGTGTATAGGATAATCAGTTTAGATGGCTCAAAGGCAATAATAAATAGTACCATCACCCCAAACATGACATTTACTAAAACATCTCAGAAGTTTGGCCAGTGGGCTGATAGCCGGGCAAACACCGTTTATGGATTGGGATTCTCCTCTGAGCATCATCTTTCGAAA", "modifications": "circular RNA", "notes": "circRNA generated from the backsplicing of exons 2 and 3 of HOMER1 pre-mRNA"}, "B3": {"name": "circHomer1a: circRNA derived from exons 2-5 of Homer protein homolog 1 (HOMER1) (nucleic acid, listed as Homo sapiens)", "chain": "GGAACAACCTATCTTCAGCACTCGAGCTCATGTCTTCCAAATTGACCCAAACACAAAGAAGAACTGGGTACCCACCAGCAAGCATGCAGTTACTGTGTCTTATTTCTATGACAGCACAAGAAATGTGTATAGGATAATCAGTTTAGATGGCTCAAAGGCAATAATAAATAGTACCATCACCCCAAACATGACATTTACTAAAACATCTCAGAAGTTTGGCCAGTGGGCTGATAGCCGGGCAAACACCGTTTATGGATTGGGATTCTCCTCTGAGCATCATCTTTCGAAATTTGCAGAAAAGTTTCAGGAATTTAAAGAAGCTGCTCGACTAGCAAAGGAAAAATCACAAGAGAAGATGGAACTTACCAGTACACCTTCACAGGAATCCGCAGGCGGGGATCTTCAGTCTCCTTTAACACCGGAAAGTATCAACGGGACAGATGATGAAAGAACACCTGATGTGACACAGAACTCAGAGCCAAGGGCTGAACCAACTCAGAATGCATTGCCATTTTCACATAG", "modifications": "circular RNA"}, "B4": {"name": "circADAM22: circRNA derived from the epilepsy-related gene ADAM metallopeptidase domain 22 (ADAM22) (nucleic acid, listed as Homo sapiens)", "chain": "GTGAATGTAAATGCGAGGACACGTGGTCCGGGTGCATAATGGGAGACACTGGCTATTATCTTCCTAAAAAGTTCACCCAGTGTAATATTGAAGAGTATCATGACTTCCTGAATAGTGGAGGTGGTGCCTGCCTTTTCAACAAACCTTCTAAGCTTCTTGATCCTCCTGAGTGTGGCAATGGCTTCATTGAAACTGGAGAGGAGTGTGATTGTGGAACCCCGGCCGAATGTGTCCTTGAAGGAGCAGAGTGTTGTAAGAAATGCACCTTGACTCAAGACTCTCAATGCAGTGACGGTCTTTGCTGTAAAAAGTGCAAGTTTCAGCCTATGGGCACTGTGTGCCGAGAAGCAGTAAATGATTGTGATATTCGTGAAACGTGCTCAGGAAATTCAAGCCAGTGTGCCCCTAATATTCATAAAATGGATGGATATTCATGTGATGGTGTTCAGGGAATTTGCTTTGGAGGAAGATGCAAAACCAGAGATAGACAATGCAAATACATTTGGGGGCAAAAGGTGACAGCATCAGACAAATATTGCTATGAGAAACTGAATATTGAAGGGACGGAGAAGGGTAACTGTGGGAAAGACAAAGACACATGGATACAGTGCAACAAACGGGATGTGCTTTGTGGTTACCTTTTGTGTACCAATATTGGCAATATCCCAAGGCTTGGAGAACTCGATGGTGAAATCACATCTACTTTAGTTGTGCAGCAAGGAAGAACATTAAACTGCAGTGGTGGGCATGTTAAGCTTGAAGAAGATGTAGATCTTGGCTATGTGGAAGATGGGACACCTTGTGGTCCCCAAATGATGTGCTTAGAACACAGGTGTCTTCCTGTGGCTTCTTTCAACTTTAGTACTTGCTTGAGCAGTAAAGAAGGCACTATTTGCTCAGGAAATGGAGTTTGCAGTAATGAGCTGAAGTGTGTGTGTAACAGACACTGGATAGGTTCTGATTGCAACACTTACTTCCCTCACAATGATGATGCAAAGACTGGTATCACTCTGTCTGGCAATGGTGTTGCTGGCACCAATATCATAATAGGCATAATTGCTGGCACCATTTTAGTGCTGGCCCTCATATTAGGAATAACTGCGTGGGGTTATAA", "modifications": "circular RNA"}}, "key": {"[1]": {"system": "circHomer1a", "experiment": "circHomer1a expression (circRNA qRT-PCR) after 2 day drug treatment of stem cell-derived mixed neuronal and astrocyte cultures", "format": "cell-based", "conditions": "2 days treatment, human 6-9 month differentiated stem cell-derived mixed neuronal and astrocyte cultures", "source_text": "FIG. 6A is a representative bright-field image from 6-9 month differentiated human embryonic stem cell (hESC)-derived mature mixed neuronal and glial cultures.\nFIG. 6B is an immunofluorescence image showing the presence of neurons (MAP2, red) and astrocytes (GFAP, green). Scale bar=100 μm.\n05, two-tailed one sample t-test. The number of replicates is also shown within the graph."}, "[2]": {"system": "OFC of subjects with Schizophrenia", "experiment": "circRNA microarray profiling, OFC of subjects with Schizophrenia vs unaffected controls (Table 4)", "set-up": "species or system human", "conditions": "relative to Control fold change of circRNA expression", "source_text": "(§1) Example of circRNA array raw image is also shown.\nFIG. 1C is a volcano plot showing differential circRNA expression in SCZ patients vs unaffected Controls (x-axis=relative to control log 2 fold changes; y-axis: negative log 10 of the p-values). Vertical lines correspond to >1.25-fold changes, and the horizontal line represents p<. 05. Example of validated circRNAs are shown in the graph.\n(§2) The circRNAs in Tables 3 and 4 were identified by profiling circRNA expression in OFC RNA samples from 34 SCZ, 32 BD, and 34 unaffected control subjects from the Stanley Medical Research Institute.\nAll circRNA array experiments used for Tables 1-4 were performed by employing a commercially available circRNA microarray platform that uses 13,617 circRNA splice junction probes designed based on previous RNA sequencing and circRNA annotation data (Service sold by Arraystar Inc.). Analysis of circRNA changes in postmortem brain samples from the OFC of subjects with BD uncovered a subset of differentially expressed circRNAs (Table 3) a subset of which stemmed from genes related to synaptic transmission, neuronal development and migration, and short term memory (FIGS. 1A-C, 2A-B), whereas altered circRNAs in SCZ (Table 4 and FIGS. 1A-C, 2A-B) were associated, among others, with the mitogen-activated protein kinase (MAPK/ERK) and protein kinase B (PKB/AKT) pathways. […]"}, "[3]": {"system": "OFC of subjects with SCZ and BD", "experiment": "circRNA-specific qRT-PCR in postmortem OFC of SCZ, BD and Control subjects", "set-up": "species or system human", "conditions": "for circRNA expression in OFC, BD patients vs unaffected Controls / circRNA expression in OFC, SCZ patients vs unaffected Controls: qRT-PCR, postmortem OFC", "source_text": "05, based on general linear model correcting for RIN, PMI, RI, and brain pH. A schematic showing the multi-exonic nature of circADAM22 is also shown.\nIn FIGS. 4A-C, E-F **p<. 01, based on a Univariate General Linear Model corrected for RIN, PMI, RI, and brain pH.\nA schematic of the exonic nature of circHomer1b is also shown. In all graphs individual SCZ, BD, and Control sample values are shown. ***p<. 001, based on general linear model correcting for RIN, PMI, RI, and brain pH.\n(§3) Given that harsh RNAseR treatment can partially digest some circRNAs together with all linear RNAs, thus making circRNA screening semi-quantitative, the present disclosure also provides novel validated and sequence-verified circRNA-specific qRT-PCR primers aimed at the unique circRNA-specific splice junction, which enable the measurement of a subset of dysregulated circRNAs in non RNaseR-treated samples. These primers are shown in FIGS. 3C, 8B, and 14A, B (See also SEQ ID NOS. 2, 3, 5, 6, 8, 9, 11 or 12)."}, "[4]": {"system": "DLPFC of subjects with SCZ and BD", "experiment": "circRNA-specific qRT-PCR in postmortem DLPFC of SCZ, BD and Control subjects", "set-up": "species or system human", "source_text": "In all graphs individual SCZ, BD, and Control sample values are shown.\nA schematic of the exonic nature of circHomer1b is also shown.\nas §3"}, "[5]": {"system": "stem cell-derived (iPSC) neuronal cultures from patients with SCZ and BD", "experiment": "circHomer1a levels in iPSC-derived neuronal cultures from SCZ and BD patients vs Control", "format": "cell-based, human", "source_text": "05, two-tailed one sample t-test relative to the Control of the same developmental time-point.\n05, two-tailed one sample t-test relative to the Control of the same developmental time-point. In all graphs individual samples are shown."}, "[6]": {"system": "orbitofrontal cortex (OFC) of subjects with Bipolar Disorder", "experiment": "circRNA microarray profiling, OFC of subjects with Bipolar Disorder vs unaffected Controls (Table 3)", "set-up": "species or system human", "source_text": "as §1, §2\nAdditional methods for identifying these brain disorder-associated circRNA biomarkers are discussed below."}}, "data": [{"molecule": "O=C(CCCN1CCC(O)(c2ccc(Cl)cc2)CC1)c1ccc(F)cc1", "note": "[Haloperidol]", "values": [{"measurement": "circHomer1a expression relative to Vehicle", "setting": "[1]", "value": "lack of effect"}]}, {"molecule": "CCCC(CCC)C(=O)O", "note": "[Valproic acid, valproic acid]", "values": [{"measurement": "circHomer1a expression relative to Vehicle", "setting": "[1]", "value": "increase"}]}, {"molecule": "B1", "values": [{"measurement": "Fold SCZ OFC", "setting": "[2]", "value": 1.4626}, {"measurement": "circRNA expression in OFC, BD patients vs unaffected Controls", "setting": "[3]", "value": "unchanged"}, {"measurement": "circRNA expression in OFC, SCZ patients vs unaffected Controls", "setting": "[3]", "value": "increased expression"}]}, {"molecule": "B2", "values": [{"measurement": "circRNA expression in DLPFC, BD patients vs unaffected Controls", "setting": "[4]", "value": "not"}, {"measurement": "circRNA expression in OFC, BD patients vs unaffected Controls", "setting": "[3]", "value": "reduced"}, {"measurement": "circRNA expression in OFC, SCZ patients vs unaffected Controls", "setting": "[3]", "value": "reduced"}]}, {"molecule": "B3", "values": [{"measurement": "circRNA expression in DLPFC, BD patients vs unaffected Controls", "setting": "[4]", "value": "reduced"}, {"measurement": "circRNA expression in DLPFC, SCZ patients vs unaffected Controls", "setting": "[4]; SCZ", "value": "reduced"}, {"measurement": "circHomer1a expression in iPSC neuronal cultures, patients vs Control", "setting": "[5]", "value": "reduced"}, {"measurement": "correlation of expression with duration of illness", "setting": "[3]; SCZ and BD patients (FIGS. 4H, 5D; OFC and DLPFC)", "value": "positively correlated"}, {"measurement": "correlation of expression with age of onset of disease", "setting": "[3]; SCZ patients (FIGS. 4G, 5C; OFC and DLPFC)", "value": "positively correlated"}, {"measurement": "circRNA expression in OFC, BD patients vs unaffected Controls", "setting": "[3]", "value": "reduced"}, {"measurement": "circRNA expression in OFC, SCZ patients vs unaffected Controls", "setting": "[3]", "value": "reduced"}, {"measurement": "Fold BD OFC", "setting": "[6]; circRNA expression, OFC of subjects with Bipolar Disorder vs unaffected Controls", "value": 0.6440}]}, {"molecule": "B4", "values": [{"measurement": "circRNA expression in OFC, BD patients vs unaffected Controls", "setting": "[3]", "value": "decreased expression"}, {"measurement": "circRNA expression in OFC, SCZ patients vs unaffected Controls", "setting": "[3]", "value": "unchanged"}, {"measurement": "Fold BD OFC", "setting": "[6]; circRNA expression in OFC, Bipolar Disorder vs unaffected Controls", "value": 0.5247}]}]}
